Data: the supplement of paper PMC10126150
± gives the standard deviation of the averaged measurements.

Tested on: ATP
Test: switch fluorescence ratio, 500 uM ATP over buffer (Cy3 cluster intensity, sum of 5 cycles each) (fold (ratio)); higher = stronger signal-on switching upon ATP binding; sequences stand for … in TCGTCGGCAGCGTCAGATGTGTATAAGAGACAGTTTTTTTTTTTTTTTTTTTTTTTTT…TC
Details: aptamer strand: ATP DNA aptamer (quencher-CACCTGGGGGAGTATTGCGGAGGAAGG + anchor), 100 nM annealed; ATP concentration: 500 uM
How it was run: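 Exposure to 500 uM ATP lasted 15 min at 22 °C before imaging, and a selection-buffer image was taken beforehand, for Cy3-labelled switching-strand clusters on a modified Illumina MiSeq flow-cell annealed to 100 nM quencher-labelled ATP aptamer. Five buffer/ATP cycles were run with NaOH stripping and re-annealing between them. The fluorescence ratio per cluster is summed target-cycle over summed buffer-cycle Cy3 intensity, averaged per switch-domain sequence. Clusters outside 100-1000 RFU were excluded.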

Sequence	switch fluorescence ratio
GGTTGTTTTG	1.017 ± 0.0097
GGTTTAAACT	0.987 ± 0.016
GGTTTAAAGG	0.996 ± 0.015
GGTTTAAATT	1 ± 0.018
GGTTTAAGAT	1.0263 ± 0.00079
GGTTTAATTT	0.993 ± 0.026
GGTTTACGGA	0.964 ± 0.01
GGTTTAGATG	1.02 ± 0.015
GGTTTAGGGA	0.996 ± 0.039
GGTTTATATG	1.035 ± 0.0011
GGTTTATTGT	0.993 ± 0.056
GGTTTCAATA	1.0088 ± 0.00023
GGTTTCATAT	0.996 ± 0.026
GGTTTCCCT	0.973 ± 0.019
GGTTTCCTGG	0.971 ± 0.031
GGTTTCGCGA	1.07 ± 0.053
GGTTTCGGCA	1.01 ± 0.0045
GGTTTCTCTT	1.003 ± 0.0099
GGTTTGAGGT	0.993 ± 0.027
GGTTTGCGGG	1.01 ± 0.0095
GGTTTGGCTG	0.993 ± 0.038
GGTTTGGGG	1.03 ± 0.016
GGTTTGGGGT	0.99 ± 0.032
GGTTTGGGTT	0.998 ± 0.037
GGTTTGGTG	1.006 ± 0.0058

Sequence	switch fluorescence ratio
GGTTTTAATG	0.988 ± 0.031
GGTTTTAGTT	0.986 ± 0.03
GGTTTTATAT	1.006 ± 0.0068
GGTTTTGAAG	0.9959 ± 0.0063
GGTTTTGACA	0.9941 ± 0.0065
GGTTTTGAGA	1.02 ± 0.029
GGTTTTGAGG	0.973 ± 0.011
GGTTTTGCAG	0.9946 ± 0.0069
GGTTTTGTGG	1.01 ± 0.03
GGTTTTGTGT	0.962 ± 0.038
GGTTTTTCTG	0.992 ± 0.061
GGTTTTTGGA	0.981 ± 0.038
GGTTTTTGTG	1.01 ± 0.034
GTAAAAGCGG	0.9788 ± 0.0082
GTAAAATGGG	0.997 ± 0.011
GTAAAGGGCG	0.973 ± 0.021
GTAAATATAG	0.9813 ± 3.7e-05
GTAAATATGG	0.987 ± 0.024
GTAACAGATT	0.976 ± 0.039
GTAACGTTAG	0.998 ± 0.042
GTAACTTTTT	1.056 ± 0.0034
GTAAGAATGG	1.03 ± 0.03
GTAAGAGTGC	1.03 ± 0.026
GTAAGAGTTC	1.02 ± 0.051
GTAAGATATT	0.9994 ± 0.0098

Sequence	switch fluorescence ratio
GTAAGGAGAG	1.02 ± 0.017
GTAAGGGAAA	1.02 ± 0.051
GTAAGTTGGG	0.993 ± 0.024
GTAATAAGAT	0.996 ± 0.0046
GTAATAAGGA	0.994 ± 0.029
GTAATAATTT	0.9982 ± 0.0034
GTAATAGAGA	1.01 ± 0.043
GTAATCGCAA	2.65 ± 0.15
GTAATGGATC	0.986 ± 0.042
GTAATGTCTT	0.9797 ± 0.0084
GTAATTAGAT	0.969 ± 0.022
GTAATTTAGT	1.02 ± 0.022
GTAATTTATC	1.0089 ± 0.00052
GTAATTTATG	1.01 ± 0.02
GTAATTTGGT	0.9904 ± 0.0032
GTACGGGGAA	1.04 ± 0.03
GTACGGGGGT	0.996 ± 0.059
GTACTAGTAT	0.977 ± 0.023
GTACTGGATT	0.988 ± 0.035
GTACTGTAGG	1 ± 0.026
GTACTTGGCT	1.016 ± 0.0023
GTACTTTCGG	0.98 ± 0.015
GTAGAAAAAA	1.002 ± 0.01
GTAGAAAGTA	0.973 ± 0.031
GTAGAAGGGT	1.01 ± 0.016

Sequence	switch fluorescence ratio
GTAGCCCGGG	0.993 ± 0.026
GTAGCGGCTG	1.037 ± 0.01
GTAGCTATAT	4.08 ± 0.14
GTAGGACGTC	1.02 ± 0.011
GTAGGCGGGG	0.99 ± 0.018
GTAGGCTAGT	1 ± 0.033
GTAGGGAACC	0.976 ± 0.025
GTAGGGGGGT	1.07 ± 0.21
GTAGGGGGTT	0.9951 ± 0.0041
GTAGGGTCAG	0.994 ± 0.027
GTAGTAGCGG	1.02 ± 0.025
GTAGTCTAGA	0.965 ± 0.024
GTAGTTACGG	1.05 ± 0.019
GTAGTTAGGG	1.02 ± 0.015
GTAGTTCGGG	0.997 ± 0.036
GTAGTTTTGC	1.0341 ± 0.00013
GTATAAAGGG	1.02 ± 0.048
GTATAAGAGC	0.985 ± 0.033
GTATAATTGT	0.984 ± 0.019
GTATAATTTG	0.9933 ± 0.0019
GTATACATTG	1.02 ± 0.027
GTATAGTCGG	1.04 ± 0.017
GTATATGGTC	1.02 ± 0.03
GTATCCTATA	1 ± 0.017
GTATCTAGTT	0.996 ± 0.024

Sequence	switch fluorescence ratio
GTATGAATCG	0.961 ± 0.056
GTATGAATGT	0.985 ± 0.03
GTATGAATTA	0.985 ± 0.033
GTATGACAGT	1.02 ± 0.032
GTATGGGTTT	0.975 ± 0.012
GTATGGTAGG	1.03 ± 0.05
GTATGTCCCC	1.0169 ± 0.00096
GTATTAAAGC	1.024 ± 0.0052
GTATTAGGGG	1.01 ± 0.028
GTATTATGGG	1 ± 0.029
GTATTATTAA	1.05 ± 0.0015
GTATTGGATA	0.998 ± 0.042
GTATTGGGTT	1 ± 0.056
GTATTTCCGG	0.9965 ± 0.0056
GTATTTTTTG	0.9958 ± 0.0069
GTCAAATATG	0.9678 ± 0.0028
GTCAGAACG	1.03 ± 0.014
GTCAGCAAAT	1.05 ± 0.02
GTCATAAGTG	0.982 ± 0.04
GTCATACCTT	1.2 ± 0.1
GTCATCAGTG	1.02 ± 0.027
GTCATGAGAT	0.9987 ± 0.0047
GTCATTAGCG	0.973 ± 0.012
GTCCAAATGG	0.999 ± 0.022
GTCCACAGGT	1.69 ± 0.056

Sequence	switch fluorescence ratio
GTCCAGGGGA	1.04 ± 0.1
GTCCATAGGT	1.02 ± 0.013
GTCCGCCTTG	1.07 ± 0.011
GTCCGGCAAT	2.04 ± 0.33
GTCCGGGGTC	0.972 ± 0.065
GTCCTTTCTG	0.988 ± 0.014
GTCGAAACAT	1.04 ± 0.075
GTCGAAGGTG	1.11 ± 0.03
GTCGATATTT	1.01 ± 0.026
GTCGGACGGA	0.971 ± 0.042
GTCGGATGTG	0.954 ± 0.044
GTCGGGGATA	1 ± 0.049
GTCGGGGGGG	0.999 ± 0.031
GTCGGGGGTT	1.02 ± 0.049
GTCGGTCTGG	1 ± 0.098
GTCGTAAGTT	1.01 ± 0.024
GTCGTAGGGA	0.973 ± 0.013
GTCGTCAAGT	1.006 ± 0.0073
GTCGTTGCTA	1.01 ± 0.015
GTCTAATAGT	1.03 ± 0.015
GTCTACTGCT	1.07 ± 0.028
GTCTGAAGGG	1.0152 ± 0.0004
GTCTGGGCGA	1.01 ± 0.033
GTCTTTTACG	1.005 ± 0.0013
GTCTTTTTAA	1.03 ± 0.032

Sequence	switch fluorescence ratio
GTGAAAGGCA	1.004 ± 0.005
GTGAAAGGGC	1.01 ± 0.034
GTGAAATTTT	1.01 ± 0.039
GTGAAGAAGA	0.991 ± 0.0048
GTGAAGGGGT	1 ± 0.047
GTGAAGTATT	0.983 ± 0.033
GTGACCAGAA	0.983 ± 0.025
GTGACCGCCC	1.49 ± 0.39
GTGACTTAGT	1.03 ± 0.02
GTGACTTCAA	1.027 ± 0.0059
GTGAGAAAGG	0.982 ± 0.015
GTGAGAATGT	1.02 ± 0.02
GTGAGAATTT	1.05 ± 0.075
GTGAGAGGTG	1.05 ± 0.052
GTGAGCTCAT	1.01 ± 0.04
GTGAGGACAA	1.05 ± 0.036
GTGAGGCGGA	1.07 ± 0.087
GTGAGGGGTT	0.971 ± 0.044
GTGAGTAAGG	0.9778 ± 0.00085
GTGAGTACTT	1.03 ± 0.014
GTGAGTCGGG	0.987 ± 0.02
GTGAGTTTTT	1.02 ± 0.022
GTGATAAGAA	1.009 ± 0.0057
GTGATAATGT	0.981 ± 0.027
GTGATACGGG	1.04 ± 0.021

Sequence	switch fluorescence ratio
GTGATAGTAA	1.006 ± 0.0099
GTGATATCGG	1.05 ± 0.034
GTGATCCTTC	1.03 ± 0.034
GTGATCTAGG	1.04 ± 0.033
GTGATGAGCG	0.979 ± 0.037
GTGATTAATC	1.01 ± 0.075
GTGATTGACT	1.03 ± 0.025
GTGATTGAGT	0.9707 ± 0.0089
GTGCACGTTG	1.01 ± 0.019
GTGCATGTGG	0.9701 ± 0.0056
GTGCGGAGAA	0.986 ± 0.035
GTGCTAACGG	0.9633 ± 0.0069
GTGCTAGGGT	0.988 ± 0.02
GTGCTGAATG	1.02 ± 0.016
GTGCTGGATT	1.02 ± 0.018
GTGCTGGTGG	0.9839 ± 0.0043
GTGCTGGTTT	1.05 ± 0.14
GTGCTTACGA	1.068 ± 0.01
GTGGAAGGCG	0.975 ± 0.03
GTGGAAGGGC	1.03 ± 0.079
GTGGACTTAA	0.9953 ± 0.0046
GTGGACTTTG	0.971 ± 0.053
GTGGAGGGGC	0.958 ± 0.081
GTGGATAAGA	1.0003 ± 1.9e-06
GTGGATCAAA	1.02 ± 0.049
